For assay [1], the target named is T1, human 5T4ECDHis (mature protein of SEQ ID NO: 99) (human, UniProt Q13641 32-355).
T1 construct: ECD of human 5T4 (aa 1-355 of Uniprot Q13641) with C-terminal His tag; residues 1-31 are the signal peptide; also called ECD of human 5T4 with a C-terminal His tag
T1 sequence: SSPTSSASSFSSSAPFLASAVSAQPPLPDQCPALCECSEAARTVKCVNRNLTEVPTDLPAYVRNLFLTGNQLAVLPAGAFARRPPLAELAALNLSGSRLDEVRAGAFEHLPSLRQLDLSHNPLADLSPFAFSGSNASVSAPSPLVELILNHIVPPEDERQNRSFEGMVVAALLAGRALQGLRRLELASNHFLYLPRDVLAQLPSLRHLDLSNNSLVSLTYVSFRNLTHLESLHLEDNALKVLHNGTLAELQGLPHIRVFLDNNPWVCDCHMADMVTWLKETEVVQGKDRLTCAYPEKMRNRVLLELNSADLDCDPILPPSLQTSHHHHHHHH
Put plainly: BLI cross-block; competitor (immobilised): IgG1-5T4-207-FEAR.

The target of assay [2] is T1, human 5T4ECDHis (mature protein of SEQ …). Put plainly: BLI cross-block; competitor (immobilised): IgG1-5T4-H8-FEAR.
Assay [3] shares this target. Put plainly: BLI cross-block; competitor (immobilised): IgG1-5T4-A1-F405L.
For assay [4] the target is unchanged. The assay can be described thus: BLI cross-block; competitor (immobilised): IgG1-5T4-085-FEAR.
The target is the same in assay [5]. Put plainly: BLI, antibody on anti-human IgG Fc Capture biosensor, antigen in solution.
For assay [6] the target is unchanged. The assay can be described thus: BLI cross-block; competitor (immobilised): IgG1-5T4-A3-F405L.
Assay [7] shares this target. Put plainly: BLI cross-block; competitor (immobilised): IgG1-5T4-106-FEAR.
Assay [8] addresses T2, full length human 5T4 (SEQ ID NO: 1) on cells (human, UniProt Q13641 32-420).
T2 construct: Uniprot Q13641; residues 1-31 are the signal peptide; Used both for transfected HEK-293 cells and for 5T4-expressing human tumor cell lines
T2 sequence: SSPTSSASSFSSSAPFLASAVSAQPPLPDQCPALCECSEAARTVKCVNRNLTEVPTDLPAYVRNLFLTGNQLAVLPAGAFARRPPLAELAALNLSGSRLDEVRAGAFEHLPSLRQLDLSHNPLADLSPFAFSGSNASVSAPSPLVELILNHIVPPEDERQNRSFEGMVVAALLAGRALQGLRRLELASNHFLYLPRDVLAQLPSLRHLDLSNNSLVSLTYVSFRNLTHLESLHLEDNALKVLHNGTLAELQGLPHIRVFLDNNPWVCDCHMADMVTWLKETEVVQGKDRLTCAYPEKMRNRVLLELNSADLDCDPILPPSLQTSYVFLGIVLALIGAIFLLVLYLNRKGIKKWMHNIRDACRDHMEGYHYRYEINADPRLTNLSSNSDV
The assay can be described thus: flow cytometry, HEK-293 cells transfected with human 5T4, PE secondary [II)D]. (A flow cytometer gives signals particle by particle.)

The target of assay [9] is T1, human 5T4ECDHis (mature protein of SEQ …). Put plainly: BLI cross-block; competitor (immobilised): IgG1-5T4-127-FEAR.
The target of assay [10] is T3, full length cynomolgus monkey 5T4 on transfected HEK-293 cells (cynomolgus monkey, UniProt Q4R8Y9 35-420).
T3 construct: Uniprot Q4R8Y9; residues 1-34 are the signal peptide; also called cynomolgus 5T4
T3 sequence: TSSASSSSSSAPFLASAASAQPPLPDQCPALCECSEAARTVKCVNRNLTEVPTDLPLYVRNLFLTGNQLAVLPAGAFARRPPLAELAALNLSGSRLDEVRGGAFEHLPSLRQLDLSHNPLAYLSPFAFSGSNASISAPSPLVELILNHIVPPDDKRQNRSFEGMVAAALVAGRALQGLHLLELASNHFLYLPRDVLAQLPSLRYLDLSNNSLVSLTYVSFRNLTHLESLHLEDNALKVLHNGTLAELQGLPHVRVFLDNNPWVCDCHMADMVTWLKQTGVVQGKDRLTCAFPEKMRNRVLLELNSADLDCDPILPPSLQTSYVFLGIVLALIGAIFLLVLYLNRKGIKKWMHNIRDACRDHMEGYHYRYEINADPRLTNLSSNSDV
Put plainly: flow cytometry, HEK-293 cells transfected with cynomolgus monkey 5T4, PE secondary [II)D].

The target in assay [11] is T1, human 5T4ECDHis (mature protein of SEQ …). Put plainly: BLI cross-block; competitor (immobilised): IgG1-5T4-059-FEAR.
For assay [12] the target is unchanged. The assay can be described thus: BLI cross-block; competitor (immobilised): IgG1-5T4-076-FEAR.
For assay [13] the target is unchanged. Put plainly: BLI cross-block; competitor (immobilised): IgG1-5T4-226-FEAR.
In assay [14] the target is T2, full length human 5T4 (SEQ ID NO: 1) on …. The assay can be described thus: flow cytometry, HEK-293 cells transfected with human 5T4, PE secondary [II)F].
Assay [15] deals with T3, full length cynomolgus monkey 5T4 on …. The assay can be described thus: flow cytometry, HEK-293 cells transfected with cynomolgus monkey 5T4, PE secondary [II)F].
Assay [16] concerns the target T2, full length human 5T4 (SEQ ID NO: 1) on …. Put plainly: flow cytometry, OE33 cells, R-PE secondary.
Assay [17] shares this target. Put plainly: flow cytometry, HeLa cells, PE secondary [II)A].
Assay [18] deals with T3, full length cynomolgus monkey 5T4 on …. Put plainly: flow cytometry, HEK-293 cells transfected with cynomolgus monkey 5T4, FITC secondary [I)A].
In assay [19] the target is T2, full length human 5T4 (SEQ ID NO: 1) on …. Put plainly: flow cytometry, FaDu cells, R-PE secondary.
The target is the same in assay [20]. Put plainly: flow cytometry, SCC-9 cells, R-PE secondary.
Assay [21] has the same target. Put plainly: flow cytometry, MDA-MB-231 cells, PE secondary [III)A].
For assay [22] the target is unchanged. The assay can be described thus: flow cytometry, NCI-H292 cells, R-PE secondary.
Assay [23] has the same target. The assay can be described thus: flow cytometry, MDA-MB-231 cells, FITC secondary [I)A].
Assay [24] has the same target. The assay can be described thus: flow cytometry, SK-GT-4 cells, R-PE secondary.
The target in assay [25] is T3, full length cynomolgus monkey 5T4 on …. Put plainly: flow cytometry, HEK-293 cells transfected with cynomolgus monkey 5T4, PE secondary [II)A].
Assay [26] has as its target T2, full length human 5T4 (SEQ ID NO: 1) on …. The assay can be described thus: flow cytometry, HeLa cells, FITC secondary [I)A].
The target is the same in assay [27]. The assay can be described thus: flow cytometry, HEK-293 cells transfected with human 5T4, PE secondary [II)A].
Assay [28] has as its target T3, full length cynomolgus monkey 5T4 on …. Put plainly: flow cytometry, HEK-293 cells transfected with cynomolgus monkey 5T4, FITC secondary [I)D].
Assay [29] concerns the target T2, full length human 5T4 (SEQ ID NO: 1) on …. The assay can be described thus: flow cytometry, HEK-293 cells transfected with human 5T4, FITC secondary [I)D].

As usually defined, the Kd is the concentration at which binding is half-saturated. The term koff denotes a measure of how fast the partners let go of each other. The term kon denotes the second-order rate constant of association. Usually EC50 (read off the curve) stands for the concentration needed to bring the measured effect to its halfway point.

B1: IgG1-5T4-106-FEAR (antibody, V domains shown)
VH: EVQLVQSGAEVKKPGESLKISCKGSGYRFTSYWIGWVRQMPGKGLEWMGIIYPGDSDARYSPSFQGQVTISADKSISTAYLQWSSLKASDTGMYYCARSVLFDYWGQGTLVTVSS
VL: AIQLTQSPSSLSASVGDRVTITCRASQGISSALAWYQQKPGKAPKLLIYDVSNLESGVPSRFSGSGSGTDFTLTISSLQPEDFATYYCQQFNSYPHTFGQGTKLEIK
notes: Monospecific, bivalent human IgG1 kappa with L234F, L235E, D265A, K409R (FEAR)
Turning to B1, the corrected association response in [1] was -0.01 nm; in assay [2], -0.01 nm; in [3], 0.85 nm; in [4], -0.01 nm; in assay [6] it was 0.57 nm; in [7], -0.02 nm. In addition, the corrected association response in assay [9] was -0.01 nm; in assay [11], 0.01 nm; in [12], -0.02 nm; in [13], -0.02 nm. In [5], this molecule had a Kd of 5.5 nM. The koff in assay [5] was 0.0012 s⁻¹. Besides, the kon in assay [5] turned out to be 210000 M⁻¹ s⁻¹. In assay [8], the “EC50 (read off the curve)” value is approximately 0.01 µg/mL. The binding result in [10] was “binds”.

B2: bsIgG1-huCD3-H101G-FEALx5T4-085-FEAR (bispecific antibody)
heavy: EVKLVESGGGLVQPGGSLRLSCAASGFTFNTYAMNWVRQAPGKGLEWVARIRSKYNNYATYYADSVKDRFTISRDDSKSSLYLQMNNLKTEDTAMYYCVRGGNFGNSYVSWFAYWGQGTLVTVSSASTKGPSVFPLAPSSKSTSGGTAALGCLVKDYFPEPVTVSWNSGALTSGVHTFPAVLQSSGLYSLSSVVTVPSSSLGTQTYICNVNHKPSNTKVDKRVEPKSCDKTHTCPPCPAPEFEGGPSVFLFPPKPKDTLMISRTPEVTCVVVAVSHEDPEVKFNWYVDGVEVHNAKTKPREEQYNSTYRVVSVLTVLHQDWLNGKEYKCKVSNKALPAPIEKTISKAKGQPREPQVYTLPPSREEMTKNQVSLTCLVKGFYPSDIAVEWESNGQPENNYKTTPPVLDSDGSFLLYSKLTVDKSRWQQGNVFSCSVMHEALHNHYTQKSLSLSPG
light: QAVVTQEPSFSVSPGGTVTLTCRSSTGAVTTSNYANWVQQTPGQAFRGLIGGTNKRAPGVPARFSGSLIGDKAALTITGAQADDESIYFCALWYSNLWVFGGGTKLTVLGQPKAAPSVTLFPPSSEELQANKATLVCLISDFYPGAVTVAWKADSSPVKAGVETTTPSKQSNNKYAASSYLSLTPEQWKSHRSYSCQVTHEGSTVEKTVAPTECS
VH: EVQLLESGGGLVQPGGSLRLSCAASGFTFSSYAMSWVRQAPGKGLEWVSAISGSGGSTYNADSVKGRFTIFRDNSKNTLYLHMNSLRAEDTAVYYCARDPGYNNVEYLDHWGQGTLVTVSS
VL: AIQLTQSPSSLSASVGDRVTITCRASQGISSALAWYQQKPGKAPKLLIYDASSLESGVPSRFSGSGSGTDFTLTISSLQPEDFATYYCQQFNSYPLTFGGGTKVEIK
notes: Fab-arm exchange product
For B2, the “EC50 (read off the curve)” value in assay [14] was approximately 0.5 µg/mL; in [15] it was approximately 0.4 µg/mL.

B3: bsIgG1-huCD3-H101G-FEALx5T4-207-FEAR (bispecific antibody)
heavy 1: not shown
light 1: not shown
heavy 2: QVQLQQWGAGLLKPSETLSLTCAVYGGSFSGYYWTWIRQPPGKGLEWIGEIDHSESTNYNPSLKSRVTISVDTSKNQFSLKLSSVTAADTAVYYCAGWFGELYHYYYGMDVWGQGTTVTVSSASTKGPSVFPLAPSSKSTSGGTAALGCLVKDYFPEPVTVSWNSGALTSGVHTFPAVLQSSGLYSLSSVVTVPSSSLGTQTYICNVNHKPSNTKVDKRVEPKSCDKTHTCPPCPAPEFEGGPSVFLFPPKPKDTLMISRTPEVTCVVVAVSHEDPEVKFNWYVDGVEVHNAKTKPREEQYNSTYRVVSVLTVLHQDWLNGKEYKCKVSNKALPAPIEKTISKAKGQPREPQVYTLPPSREEMTKNQVSLTCLVKGFYPSDIAVEWESNGQPENNYKTTPPVLDSDGSFFLYSRLTVDKSRWQQGNVFSCSVMHEALHNHYTQKSLSLSPG
light 2: not shown
notes: also called CD3x5T4 bispecific antibody
As for B3, the “EC50 (read off the curve)” value was approximately 0.08 µg/mL in assay [16]; approximately 0.04 µg/mL in assay [17]; approximately 0.1 µg/mL in [18]; approximately 0.06 µg/mL in assay [19]; approximately 0.08 µg/mL in [20]; approximately 0.04 µg/mL in assay [21]. Also, the “EC50 (read off the curve)” value in assay [22] is approximately 0.03 µg/mL; in [23], approximately 0.1 µg/mL; in [24] it was approximately 0.08 µg/mL; in [25], approximately 0.03 µg/mL; in assay [26], approximately 0.04 µg/mL; in [27], approximately 0.06 µg/mL.

B4: bsIgG1-huCD3-H101G-FEALx5T4-H8-FEAR (bispecific antibody)
heavy: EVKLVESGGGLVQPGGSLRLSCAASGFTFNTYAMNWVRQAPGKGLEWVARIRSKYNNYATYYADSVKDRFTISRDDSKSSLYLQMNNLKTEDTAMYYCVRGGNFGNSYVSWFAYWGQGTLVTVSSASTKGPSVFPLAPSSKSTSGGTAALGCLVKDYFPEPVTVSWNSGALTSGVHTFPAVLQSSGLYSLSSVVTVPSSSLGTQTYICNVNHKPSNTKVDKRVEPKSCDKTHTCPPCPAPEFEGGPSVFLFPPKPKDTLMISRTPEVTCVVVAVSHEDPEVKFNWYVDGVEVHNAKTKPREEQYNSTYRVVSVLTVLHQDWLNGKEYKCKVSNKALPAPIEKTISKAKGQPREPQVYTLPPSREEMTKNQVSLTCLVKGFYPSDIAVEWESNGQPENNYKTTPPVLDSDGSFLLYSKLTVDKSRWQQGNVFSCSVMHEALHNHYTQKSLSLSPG
light: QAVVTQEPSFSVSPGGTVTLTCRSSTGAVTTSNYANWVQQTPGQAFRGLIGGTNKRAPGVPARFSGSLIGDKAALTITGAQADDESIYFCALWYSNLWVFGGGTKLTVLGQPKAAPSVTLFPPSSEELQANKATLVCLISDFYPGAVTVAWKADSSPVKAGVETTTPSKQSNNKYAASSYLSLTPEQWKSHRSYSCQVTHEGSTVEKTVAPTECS
VH: EVQLQQSGPDLVKPGASVKISCKASGYSFTGYYMHWVKQSHGKSLEWIGRINPNNGVTLYNQKFKDKAILTVDKSSTTAYMELRSLTSEDSAVYYCARSTMITNYVMDYWGQVTSVTVSS
VL: SIVMTQTPTFLLVSAGDRVTITCKASQSVSNDVAWYQQKPGQSPTLLISYTSSRYAGVPDRFIGSGYGTDFTFTISTLQAEDLAVYFCQQDYNSPPTFGGGTKLEIK
notes: Fab-arm exchange product
Turning to B4, the “EC50 (read off the curve)” value in assay [28] was approximately 0.1 µg/mL. In addition, the binding result in assay [29] is “binds”.

Source of the values: patent US20230257479A1 (Genmab, published 2023).
